Consider 84 substances from the Human Domainome abundance scans (Beltran et al. 2025).

± gives the uncertainty stated by the source.

The nature of the series: abundance fitness (aPCA) (normalised: wild type 0, dead -1); higher = more abundant; growth selection in yeast, the domain comes from the species named. To be noted: Homo sapiens.
As for “E3 ubiquitin-protein ligase NEDD4-like D204A, Q96PU5”, the abundance fitness was -0.392 ± 0.068.
“E3 ubiquitin-protein ligase NEDD4-like D204C, Q96PU5” yielded an abundance fitness of -0.151 ± 0.099.
Take “E3 ubiquitin-protein ligase NEDD4-like D204E, Q96PU5”: the abundance fitness is -0.505 ± 0.089.
Next, “E3 ubiquitin-protein ligase NEDD4-like D204G, Q96PU5”: -0.491 ± 0.057; “E3 ubiquitin-protein ligase NEDD4-like D204H, Q96PU5”: -0.684 ± 0.14; “E3 ubiquitin-protein ligase NEDD4-like D204I, Q96PU5”: -1.04 ± 0.17.
To “E3 ubiquitin-protein ligase NEDD4-like D204K, Q96PU5” belongs -0.894 ± 0.13.
“E3 ubiquitin-protein ligase NEDD4-like D204L, Q96PU5” returned an abundance fitness of -0.803 ± 0.072.
Next, “E3 ubiquitin-protein ligase NEDD4-like D204M, Q96PU5”: -0.751 ± 0.075; “E3 ubiquitin-protein ligase NEDD4-like D204N, Q96PU5”: -0.451 ± 0.14.
Next, “E3 ubiquitin-protein ligase NEDD4-like D204P, Q96PU5”: -0.897 ± 0.15; “E3 ubiquitin-protein ligase NEDD4-like D204Q, Q96PU5”: -0.668 ± 0.077; “E3 ubiquitin-protein ligase NEDD4-like D204R, Q96PU5”: -1.03 ± 0.062.
To “E3 ubiquitin-protein ligase NEDD4-like D204S, Q96PU5” belongs -0.037 ± 0.064; to “E3 ubiquitin-protein ligase NEDD4-like D204V, Q96PU5”, -0.908 ± 0.074.
“E3 ubiquitin-protein ligase NEDD4-like D204W, Q96PU5” gave an abundance fitness of -1.4 ± 0.12.
Substance “E3 ubiquitin-protein ligase NEDD4-like D228A, Q96PU5” gave an abundance fitness of -0.091 ± 0.07.
Next, “E3 ubiquitin-protein ligase NEDD4-like D228C, Q96PU5”: -0.332 ± 0.067.
To “E3 ubiquitin-protein ligase NEDD4-like D228E, Q96PU5” belongs 0.062 ± 0.09.
Next, “E3 ubiquitin-protein ligase NEDD4-like D228F, Q96PU5”: -0.329 ± 0.11; “E3 ubiquitin-protein ligase NEDD4-like D228G, Q96PU5”: 0.031 ± 0.056.
“E3 ubiquitin-protein ligase NEDD4-like D228H, Q96PU5” had an abundance fitness of 0.122 ± 0.079.
To “E3 ubiquitin-protein ligase NEDD4-like D228I, Q96PU5” belongs -0.474 ± 0.12; to “E3 ubiquitin-protein ligase NEDD4-like D228K, Q96PU5”, -0.002 ± 0.079; to “E3 ubiquitin-protein ligase NEDD4-like D228L, Q96PU5”, -0.14 ± 0.062.
To “E3 ubiquitin-protein ligase NEDD4-like D228M, Q96PU5” belongs -0.175 ± 0.099; to “E3 ubiquitin-protein ligase NEDD4-like D228N, Q96PU5”, 0.063 ± 0.097.
“E3 ubiquitin-protein ligase NEDD4-like D228P, Q96PU5” displayed an abundance fitness of 0.099 ± 0.07.
To “E3 ubiquitin-protein ligase NEDD4-like D228Q, Q96PU5” belongs -0.277 ± 0.085; to “E3 ubiquitin-protein ligase NEDD4-like D228R, Q96PU5”, -0.101 ± 0.061.
Consider “E3 ubiquitin-protein ligase NEDD4-like D228S, Q96PU5”, for which the abundance fitness is -0.053 ± 0.059.
“E3 ubiquitin-protein ligase NEDD4-like D228T, Q96PU5” yielded an abundance fitness of 0.042 ± 0.076.
Next, “E3 ubiquitin-protein ligase NEDD4-like D228V, Q96PU5”: -0.159 ± 0.071.
For the substance “E3 ubiquitin-protein ligase NEDD4-like D228W, Q96PU5”, the abundance fitness is -0.419 ± 0.064.
Take “E3 ubiquitin-protein ligase NEDD4-like E188A, Q96PU5”: the abundance fitness is -0.854 ± 0.29.
“E3 ubiquitin-protein ligase NEDD4-like E188G, Q96PU5” displayed an abundance fitness of -1.07 ± 0.49.
Regarding “E3 ubiquitin-protein ligase NEDD4-like E188L, Q96PU5”, the abundance fitness is -0.459 ± 0.28.
To “E3 ubiquitin-protein ligase NEDD4-like E188S, Q96PU5” belongs 0.089 ± 0.22; to “E3 ubiquitin-protein ligase NEDD4-like E188V, Q96PU5”, 0.297 ± 0.2; to “E3 ubiquitin-protein ligase NEDD4-like E189A, Q96PU5”, -0.356 ± 0.065.
Next, “E3 ubiquitin-protein ligase NEDD4-like E189C, Q96PU5”: -0.176 ± 0.062; “E3 ubiquitin-protein ligase NEDD4-like E189D, Q96PU5”: -0.189 ± 0.093; “E3 ubiquitin-protein ligase NEDD4-like E189G, Q96PU5”: -0.241 ± 0.058.
“E3 ubiquitin-protein ligase NEDD4-like E189H, Q96PU5” showed an abundance fitness of -0.242 ± 0.13.
For “E3 ubiquitin-protein ligase NEDD4-like E189I, Q96PU5”, the abundance fitness is 0.107 ± 0.13.
To “E3 ubiquitin-protein ligase NEDD4-like E189K, Q96PU5” belongs -0.026 ± 0.082.
The substance “E3 ubiquitin-protein ligase NEDD4-like E189L, Q96PU5” came in with an abundance fitness of -0.278 ± 0.065.
“E3 ubiquitin-protein ligase NEDD4-like E189M, Q96PU5” registered an abundance fitness of -0.477 ± 0.081.
Next, “E3 ubiquitin-protein ligase NEDD4-like E189N, Q96PU5”: 0.222 ± 0.095.
“E3 ubiquitin-protein ligase NEDD4-like E189P, Q96PU5”: the abundance fitness was -0.384 ± 0.093.
In turn, “E3 ubiquitin-protein ligase NEDD4-like E189Q, Q96PU5” yielded an abundance fitness of -0.062 ± 0.097.
Consider “E3 ubiquitin-protein ligase NEDD4-like E189R, Q96PU5”, for which the abundance fitness is -0.23 ± 0.055.
Substance “E3 ubiquitin-protein ligase NEDD4-like E189S, Q96PU5” gave an abundance fitness of -0.136 ± 0.065.
In turn, “E3 ubiquitin-protein ligase NEDD4-like E189T, Q96PU5” registered an abundance fitness of -0.087 ± 0.077.
To “E3 ubiquitin-protein ligase NEDD4-like E189V, Q96PU5” belongs -0.267 ± 0.069; to “E3 ubiquitin-protein ligase NEDD4-like E189W, Q96PU5”, -0.56 ± 0.065; to “E3 ubiquitin-protein ligase NEDD4-like E189Y, Q96PU5”, 0.16 ± 0.1.
To “E3 ubiquitin-protein ligase NEDD4-like E200A, Q96PU5” belongs -0.105 ± 0.062; to “E3 ubiquitin-protein ligase NEDD4-like E200C, Q96PU5”, -0.092 ± 0.08; to “E3 ubiquitin-protein ligase NEDD4-like E200D, Q96PU5”, -0.346 ± 0.081.
In turn, “E3 ubiquitin-protein ligase NEDD4-like E200F, Q96PU5” returned an abundance fitness of -0.328 ± 0.083.
Substance “E3 ubiquitin-protein ligase NEDD4-like E200G, Q96PU5” gave an abundance fitness of -0.299 ± 0.059.
The substance “E3 ubiquitin-protein ligase NEDD4-like E200H, Q96PU5” displayed an abundance fitness of -0.721 ± 0.18.
To “E3 ubiquitin-protein ligase NEDD4-like E200K, Q96PU5” belongs -0.161 ± 0.062; to “E3 ubiquitin-protein ligase NEDD4-like E200L, Q96PU5”, -0.266 ± 0.08; to “E3 ubiquitin-protein ligase NEDD4-like E200M, Q96PU5”, -0.152 ± 0.074.
Next, “E3 ubiquitin-protein ligase NEDD4-like E200N, Q96PU5”: -0.471 ± 0.13; “E3 ubiquitin-protein ligase NEDD4-like E200P, Q96PU5”: -1.29 ± 0.2.
Regarding “E3 ubiquitin-protein ligase NEDD4-like E200Q, Q96PU5”, the abundance fitness was -0.072 ± 0.11.
For the substance “E3 ubiquitin-protein ligase NEDD4-like E200R, Q96PU5”, the abundance fitness was -0.31 ± 0.065.
“E3 ubiquitin-protein ligase NEDD4-like E200S, Q96PU5”: the abundance fitness was -0.166 ± 0.077.
Substance “E3 ubiquitin-protein ligase NEDD4-like E200T, Q96PU5” returned an abundance fitness of -0.138 ± 0.081.
For “E3 ubiquitin-protein ligase NEDD4-like E200V, Q96PU5”, the abundance fitness is -0.179 ± 0.084.
Next, “E3 ubiquitin-protein ligase NEDD4-like E200W, Q96PU5”: -0.603 ± 0.069; “E3 ubiquitin-protein ligase NEDD4-like E200Y, Q96PU5”: -0.357 ± 0.072; “E3 ubiquitin-protein ligase NEDD4-like E201A, Q96PU5”: -0.1 ± 0.066.
Next, “E3 ubiquitin-protein ligase NEDD4-like E201C, Q96PU5”: -0.084 ± 0.09; “E3 ubiquitin-protein ligase NEDD4-like E201F, Q96PU5”: -0.412 ± 0.14; “E3 ubiquitin-protein ligase NEDD4-like E201G, Q96PU5”: -0.282 ± 0.05.
Next, “E3 ubiquitin-protein ligase NEDD4-like E201H, Q96PU5”: -0.223 ± 0.13.
For the substance “E3 ubiquitin-protein ligase NEDD4-like E201L, Q96PU5”, the abundance fitness is -0.257 ± 0.061.
“E3 ubiquitin-protein ligase NEDD4-like E201M, Q96PU5” registered an abundance fitness of -0.066 ± 0.11.
Next, “E3 ubiquitin-protein ligase NEDD4-like E201N, Q96PU5”: -0.212 ± 0.06; “E3 ubiquitin-protein ligase NEDD4-like E201P, Q96PU5”: -0.255 ± 0.091.
